Assays:
[1] = molecular target: T1, cynomolgus monkey PVRIG on FlpinCHO-cyno PVRIG cells (cynomolgus monkey, UniProt A0A2K5WVV8 41-322); test: FACS, FlpinCHO-cyno PVRIG cells
T1 construct: whole, on cells; also called FlpinCHO-cynomolgus monkey PVRIG
T1 sequence: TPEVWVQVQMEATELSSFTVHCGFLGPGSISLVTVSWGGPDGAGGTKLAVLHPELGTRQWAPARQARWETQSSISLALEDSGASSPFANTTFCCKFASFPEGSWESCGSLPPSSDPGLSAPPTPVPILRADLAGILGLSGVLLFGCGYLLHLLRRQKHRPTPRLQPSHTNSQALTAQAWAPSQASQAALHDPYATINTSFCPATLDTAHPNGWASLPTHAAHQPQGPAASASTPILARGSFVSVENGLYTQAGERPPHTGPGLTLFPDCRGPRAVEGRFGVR

[2] = molecular target: T2, human PVRIG on FlpinCHO-PVRIG cells (human, UniProt Q6DKI7 41-326); test: FACS, FlpinCHO-PVRIG cells
T2 construct: whole, on cells; also called FlpinCHO-hPVRIG; FlpinCHO-human PVRIG
T2 sequence (looked up): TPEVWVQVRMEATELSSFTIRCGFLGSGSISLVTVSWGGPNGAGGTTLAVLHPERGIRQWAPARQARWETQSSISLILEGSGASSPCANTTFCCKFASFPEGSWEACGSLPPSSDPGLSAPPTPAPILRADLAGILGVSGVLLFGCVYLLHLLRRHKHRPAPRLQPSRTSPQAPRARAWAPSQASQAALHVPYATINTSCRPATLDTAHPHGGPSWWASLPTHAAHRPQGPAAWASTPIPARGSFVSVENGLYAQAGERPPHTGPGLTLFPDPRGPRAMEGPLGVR
Description: After discarding the cell culture medium, the cells were rinsed with PBS and digested for 8-10 minutes by adding 1 mL Versene (Gibico, 15040-066). The Ham's F12 (Gibico, 21127-022) complete medium containing 10% FBS was then added to terminate the digestion and acquire cell suspension. After counting with a cell counter (Beckman Coulter, Vi-CELL), an appropriate amount of cell suspension was centrifuged at 350×g to remove the supernatant, washed twice with PBS, stained with Zombie violet (Biolegend, 423114) and incubated at room temperature for 20 minutes. After incubation, the cells were added with staining buffer (2% FBS+PBS) to stop staining, centrifuged at 350×g to remove the supernatant, washed twice and resuspended with staining buffer to a density of 2×10⁶ cells/mL. The cells were plated into a 96-well plate (50 μL of cell suspension per well) for further use. The antibodies were diluted from the highest concentration of 46 nM (two-fold concentration) with staining buffer by 3.3-fold serial dilution. The diluted antibodies were added to the well containing 50 μL of cell suspension. The plate was placed on a microplate shaker at 400 rpm for 1 minute to fully mix the antibodies and cells, and then incubated at 4° C. for 30 minutes. After the incubation, the cells were washed twice with staining buffer (200 μL per well) and centrifuged at 350×g for 5 minutes to discard the supernatant. The PE goat anti-human IgG Fc antibody (ebioscience, 12-4998-82) was diluted 250 times with staining buffer, added into the washed wells (100 μL per well), mixed well, and stained at 4° C. for 30 minutes. After staining, the cells were washed twice with staining buffer, finally resuspended with 200 μL staining buffer and analyzed by flow cytometry (BD, Canto II). The stronger the signal, the stronger the ability of the antibodies binds to PVRIG. An antibody binding curve was drawn with concentration of antibodies as the abscissa and the corresponding Mean Fluorescence Intensity (MFI) as the ordinate. The AUC value of the curve was calculated by using a Four Parameter Logistic Fit (GraphPadPrism9).

[3] = molecular target: T3, full-length cynomolgus monkey TIGIT on CHO-K1 cells (CHO-K1 cynomolgus monkey TIGIT) (cynomolgus monkey); test: FACS
T3 construct: NCBI XP_015300911.1; also called cynomolgus monkey TIGIT cells
T3 sequence (chain, as listed by the source limits assumed): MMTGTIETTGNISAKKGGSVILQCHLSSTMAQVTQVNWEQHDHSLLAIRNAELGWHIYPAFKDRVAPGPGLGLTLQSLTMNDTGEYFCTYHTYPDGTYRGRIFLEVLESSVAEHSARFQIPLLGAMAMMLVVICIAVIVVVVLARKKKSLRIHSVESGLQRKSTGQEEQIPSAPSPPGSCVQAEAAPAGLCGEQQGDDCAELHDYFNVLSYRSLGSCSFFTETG
Description: (§1) The collected cells were washed once with PBS (Hyclone, CAT #SH30256), resuspended to 2×10⁵/50 μL with 1% BSA-PBS. The antibodies were diluted to 80 nM with 1% BSA-PBS (diluted by 3-fold serial dilution for 12 concentration points). The 50 μL cells were then mixed with 50 μL diluted antibodies, and then incubated at 4° C. for 60 minutes. […] After washing twice with PBS, the cell samples were resuspended with 1% BSA-PBS, 100 μL/well and then analyzed by flow cytometry (BD, Canto II). […] [0298] (c) The effect of anti-TIGIT chimeric antibodies blocking the interaction between Bio-CD155-His and CHO-K1 human TIGIT high expression cell strains detected by FACS

[4] = molecular target: T4, full-length human TIGIT on CHO-K1 cells (CHO-K1 human TIGIT) (human, UniProt Q495A1 22-244); test: FACS, medium expression strain
T4 construct: NCBI XP_024309156.1; entry includes the signal peptide; also called high expression strain 1D2; medium expression strain 2D10
T4 sequence: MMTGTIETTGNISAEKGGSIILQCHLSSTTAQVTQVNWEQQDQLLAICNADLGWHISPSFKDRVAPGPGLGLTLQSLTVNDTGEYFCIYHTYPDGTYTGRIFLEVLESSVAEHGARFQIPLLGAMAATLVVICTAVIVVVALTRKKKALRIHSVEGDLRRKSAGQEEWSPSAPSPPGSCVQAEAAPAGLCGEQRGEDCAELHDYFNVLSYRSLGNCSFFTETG
Description: as §1

[5] = molecular target: T5, Fusion protein of extracellular domain of human TIGIT and His-tag (human TIGIT ECD-his) (human); test: BIAcore; KD ratio to TIGIT-CHI-002
T5 chain: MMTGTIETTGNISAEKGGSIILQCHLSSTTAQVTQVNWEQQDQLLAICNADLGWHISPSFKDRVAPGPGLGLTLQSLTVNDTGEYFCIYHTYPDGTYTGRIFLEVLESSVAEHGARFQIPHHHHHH

[6] = molecular target: T5, Fusion protein of extracellular domain …; test: BIAcore; KD ratio to TIGIT-CHI-070

B1: SRF813-hIgG1 (antibody, V domains shown)
VH: QVQLVQSGAEVKKPGSSVKVSCKASGGTFSSAAISWVRQAPGQGLEWMGNIIPIVGIANYAQKFQGRVTITADESTSTAYMELSSLRSEDTAVYYCARDTGRGYTRHFWFDPWGQGTLVTVSS
VL: DIQMTQSPSSLSASVGDRVTITCRASQSISSYLNWYQQKPGKAPKLLIYAASSLQSGVPSRFSGSGSGTDFTLTISSLQPEDFATYYCQQSDILYTFGGGTKVEIK
notes: human IgG1 format by its name
EC50 (read off the curve) [1]: 1 to 1.4 nM

B2: PVRIG-A105 (VHH)
VHH: EVQLVESGGGLVQAGGSLRLSCAASGRTFDRHTMTWFRQAPGKEREFVATASRIPGDTYYSHSVKGRFTISRDNAKNTVYLQLNNLKPEDTAVYYCAATSAYCSEVDCYEKGSWYDNWGQGIQVTVSS
notes: tested as VHH-hinge-CH2-CH3 (human IgG1-Fc); not shown: human IgG1 hinge-CH2-CH3
EC50 (read off the curve) [2]: ~0.4 nM

B3: RG6058-hIgG1 (antibody, V domains shown)
VH: EVQLQQSGPGLVKPSQTLSLTCAISGDSVSSNSAAWNWIRQSPSRGLEWLGKTYYRFKWYSDYAVSVKGRITINPDTSKNQFSLQLNSVTPEDTAVFYCTRESTTYDLLAGPFDYWGQGTLVTVSS
VL: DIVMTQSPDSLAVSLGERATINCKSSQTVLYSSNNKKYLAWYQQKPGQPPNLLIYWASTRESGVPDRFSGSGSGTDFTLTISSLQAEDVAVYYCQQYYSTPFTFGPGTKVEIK
notes: human IgG1 format by its name; also called Roche RG6058; control antibody RG6058
EC50 [3]: 0.0509 nM
EC50 [4]: 0.616 nM

B4: TIGIT-002-H4L3 (antibody, V domains shown)
VH: EVQLQESGPGLVKPSETLSLTCAVSGYSITSDSWNWIRQPPGKKLEYIGYISYSGNTYYNPSLKSRVTISRDTSKNQFSLKLSSVTAADTAVYYCARLDFSNYGGAVDYWGQGTTVTVSS
VL: DIVMTQSPDSLAVSLGERATINCKASQNVRTAVAWYQQKPGQSPKLMIYSASYRYTGVPDRFSGSGSGTDFTLTISSLQAEDVAVYYCQQYYTTPWTFGGGTKVEIK
notes: Humanized anti-TIGIT antibody
Fold change vs chimeric antibodies (KD) [5]: 1.26 fold

B5: TIGIT-070-H1L1 (antibody, V domains shown)
VH: EVQLVQSGAEVKKPGASVKVSCKASGYTFTNYYMHWVRQAPGQRLEWMGRIDPDSGGSKYNEKFKSRVTITVDKSASTAYMELSSLRSEDTAVYYCAREGHYGFYSDYWGQGTTVTVSS
VL: DIQMTQSPSSLSASVGDRVTITCRVSENIYSYLAWYQQKPGKSPKLLIYNAKTLAEGVPSRFSGSGSGTDFTLTISSLQPEDFATYYCQHHYGNPLTFGPGTKVDIK
notes: Humanized anti-TIGIT antibody
Fold change vs chimeric antibodies (KD) [6]: 0.59 fold

Source: US20240343803A1 (SHANDONG SIMCERE BIOPHARMACEUTICAL, published 2024)
